According to a protein production outcome set (Wang et al. 2014):

Experiment: label from the status in PepcDB records
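Note: failed if final PepcDB status was selected cloned or expressed and not failed if soluble or beyond.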

Sequence | protein production
MAGYVGDVAIAYDRDLGHVLFEQYASDIARRTAGKPVRDVLEVASGTGIVTRQLRNVLPGDAQLTAIDISDSMMEVARTKFLPHEQVTFQVANAVALPFDDRAFDTVVCQFGVMFFDKDKAFQETHRVLRQGGRYLFSVWDSRDYNPYASLTFEVMKQFFPSDPPRFLESTVSSFEIDPVKERLIRAGFEQISISVQRRIYDIPDIRAFARGLIFSPIINEIRERGEVDPDDIVEALVKIFIGEYGSNPTRFPMQAILFETEKPLEHHHHHH | failed
MVYWEYKINQTRRVMKNLKFQSVFDIIGPVMVGPSSSHTAGAVRIGKIVSAIFGDAPTEVEFQLFNSFAKTYRGHGTDVALVAGILGMETDDPDIPHALDIAHEKGIKVYWKINKDSKAPHPNTTRITLKNATKTISATGISIGGGNIQVTELNGF | not failed
MSKKKILIFISVILIIFGGVYLKMKYDEKAKQKEIYYKEQQERITLYLKYNTKKPNTIKSVHFTSLEQGPMGDAIIEGYINNNKEDEFVAFASPENNYQFGGGLTADVKIFKLLKPANESRSPNEIKKDLDKKKERLEHHHHHH | not failed
MVARDTTAPQVKIVNPVTGNVSGSNVPISVNASDDSGASGITYALYIDGVLKATGKGSTLGYNWNIRNVAAGAHTVQVVAKDAAGNSASSSLEHHHHHH | not failed
MYVLIGGAGLIGQQLARQVLDQGHTVAVIDQDPQVCKMVRDRLGAMAFEGSAVNTDILLEAGICRADAVAAVLRQDALNLALVTLACHYGVSRIISRISQQDFIEPMRLAGAHHIISTVDLVVSTMVNAIECPQVESMLHFEQGQIEVFKLTLDSQSPVIGRSVAAIAQDRNFPSSSLIIGYQSHPQADLVIPSGNTVLEANATVLLATKPGLVQSLVNFLMPSLFSPLEHHHHHH | failed
AEDNLGPLPENWEMAYTENGEVYFIDHNTKTTSWLDPRCLNKQQ | not failed
MIITIARQCGCGGHEVARILANKLGMELFDKKKLLEEANQLGQAEEHSNFFNEVPINSLLYGIAMGFGNTKPMDKSLKLVKAITENKDAIIIGRCANIIYKDSKDVTSVYLFADKEFRIKYLMERDGISEKEAEKYIKEVDEKRTSFHKYCTDTVWGDAKEYQLCLDTGKIGFEKTAELIMNYINAKKES | failed
MSLFIYEVLIRLFMTFILSLLLTPLVKLLAFRIGAYDAPGERRINTKNMPTAGGLAIYIAFASSCLLIFRSIIPQDYIWPIILAGGMVVLTGLIDDIKEITPMKKTIGILLAALVIYFVAGIRIDFVTLPVVGMIDLRWFSLPLTLLWILAITNAVNLIDGLDGLASGVSIIGLTTIGITGYFFLHAKTVYIPIVIFILVASIAGFFPYNFYPAKIFLGDTGALFLGFMIAVMSLQGLKNATFITVITPMVILGVPITDTVYAIIRRLLNKKPISSADKMHLHHRLLSLGFTHKGAVMTIYALALVFSFVSLLFSYSSTVASILLIVFCLIGLELFIELIGLVGEGHQPLMYLLRILGNREYRQEQMKKRLGKHSKRK | failed
MNSEKDVMADASAMRTSMHALAVYGATPLFVLLWSGGAIFSRVGLSHASPFAFLTLRFVIALPLLAAIGVARRCMLPAPGTRVRVAVTGALMIGGYSISYLLALDFGMTPGVLATVLGVQPILTLLWMERRVSVARLAGLTLALAGLVTIVADSLMAARFSMAGWGAALAALACMTVGAIGQKGIRQAAVEILPLQYTVALAMCLLCVPFQPFRFEHVPGFFFPLLWMGIVISVVATLLFYRLIQAGNLVNVTSLFYLVPPVTVLLDFVALSNRPAPLALVGMIAIPVGLALAFRAGR | failed
SDCDIEGKDGKQYESVLMVSIDQLLDSMKEIGSNCLNNEFNFFKRHICDANKEGMFLFRAARKLRQFLKMNSTGDFDLHLLKVSEGTTILLNCTGQVKGRKPAALGEAQPTKSLEENKSLKEQKKLNDLCFLKRLLQEIKTCWNKILMGTKEH | not failed
MKRSTEFLKSLDVKLILILLALCVTSIAAIYSSQQTGQYGESNFAMKQGLNYIIGVVLLLLVASIDLDQLQKLSWPLYIVGFASLILLKILPVSTFTPEKLGAKRWFVFPLVGQIQPSEFFKISLLLVVASIAVKHNAQYMARTFQTDLKLVGKIVLVSLPPIAVVYSQPDTGMVFLYAAAIACILFMSGIQKKLIALCTVIPVTILSTLIFIYVRYEDFFFNKLVTLLKPHQQSRILGWLDPFEHTDQGYQTQQSILAVGSGGMEGKGFGEGNVYIPEKHTDFIFATIAEEGGFIVAALVVFLFLLLLYRTIIIGYSADNLFGTLLCAGSIGILTVQIFQNIGMIVGLMPVKGIALPFLSYGGSSLFSNMIMMGLILSVRKTYKKYMFSVK | failed
MISANDLSPAELAALLHFHADAGVEWLLEEEAIDRFAEFEAMKAARRPAAQAQQQRPAAGERPAPGQAQVRPNAAVRPAPAERAASGPQPAIPDGEAVQQARFVAETARSLVELKTAIESFNGCNLKHSARSTIFASGDAESGIMVIGSAPSAEDDREGMPFSGKSGQLFDKMLAAIGLTRSAILLTQVIPWRPPGNRAPSAAEMDICRPFIERQIALAEPKAILLLGNFSARFFFGENDTIHGLRGRWKEIAAADCVIPAIASLHPQDLLTAPVNKRLAWNDLLAFQAKLKSLSLLRN | failed
MKKTTLALSALALSLGLALSPLSATAAETSSATTAQQMPSLAPMLEKVMPSVVSINVEGSTTVNTPRMPRNFQQFFGDDSPFCQEGSPFQSSPFCQGGQGGNGGGQQQKFMALGSGVIIDADKGYVVTNNHVVDNATVIKVQLSDGRKFDAKMVGKDPRSDIALIQIQNPKNLTAIKMADSDALRVGDYTVAIGNPFGLGETVTSGIVSALGRSGLNAENYENFIQTDAAINRGNSGGALVNLNGELIGINTAILAPDGGNIGIGFAIPSNMVKNLTSQMVEYGQVKRGELGIMGTELNSELAKAMKVDAQRGAFVSQVLPNSSAAKAGIKAGDVITSLNGKPISSFAALRAQVGTMPVGSKLTLGLLRDGKQVNVNLELQQSSQNQVDSSSIFNGIEGAEMSNKGKDQGVVVNNVKTGTPAAQIGLKKGDVIIGANQQAVKNIAELRKVLDSKPSVLALNIQRGDSTIYLLMQ | failed
NRLPDAVVTVYPTFNSLQMLAHALRMPYHDMRIVSLTGRPWHEFDRALIERAEKIGILTDHEHTPSAIAMRMLDYGYEDYTMSVGTRMGNPQEQCLDTFSLREAADRDFERPNCVILSATRPFVCSRAPLGLSESAFMPLNGRTKMITKMPFRLVSLSCLELHRASSFWDIGFCTGSVSIEAKLNFPHLHITAFEIRPEGAELMPVNSRRFGAPGIAYRIGDFMEEDISSLAPPDAVFIGGHGGRLVEMIAKVHSVMTKGGLLVFNSVSEESRHLFLTGIEACGMELLSSIRLTADGNNPIDILQARKKE | not failed
MRGKILIFLHAHLPYVHHPEYDHFLEERWLFEAITETYIPLLMMFDEIEDFRLTMSITPPLMEMLSSRDLQEKYERHMEKLIELANKEVERTKKEHPLKHKMAKFYREHFEKILNVFRSYDGNILEGFKKYQETGKLEIVTCNATHAFLPLYQMYPEVVNAQITVGVKNYAKHMTLHPRGIWLAECGYYQGLDLYLAQNNVEYFFVDSHAFWFADEQPRYGVYRPIMTPSGVFAFARDPESSEQVWSAAVGYPGDPRYREFYRDIGFDREMEYIKDYIDPSGVRINTGIKYHRITSKSLDASQKEYYDIDLAMEAVEEHARDFLHKKESQARRLMDIMGVEPVIVAPFDAELFGHWWFEGVFFLKRFFELVNESKDLKLVTASEVIDTLEEVQIATPADSSWGAGGYYETWLNGTNDWIYRHLHEMIERMIDLSKKYYNSSDPLVERVLNQMLRELFLAQSSDWAFIMTTRTSVQYAENRTKLHIKRFLNLYDQLVSGRIDEEMLRYYEWTDAIFPEINFRVMARDVI | not failed
MKYSTRADIQDYLKQGYQLVSDNFVTGTTFDTDDRTDQIYEVHFKHGIESDFEKRNVKETVHYRYDNGQLARPIYQNVLNFERKVETDQVTKQRNYKNWQAVDGTSFKRVVSPYIKGYTAVPKLIDEITNINENHKNIEKIVVYKANDEKAQVKYFDDTTGRKLSEQFLHGAYGSRDVYRTANTIQHYKQMGYELVSDDYPKNGAKYSQDKLVRVYEIHLKHKIIEQSEKSTVKEVIHYLYDNGHLAKPVYESVLNFSRMVGIDQVTGKKYYGIWQATEGTSFKKVVSPKIEGYTALPKVVVAINNINVNHANIEKIVVYKANDEKARVKYFDDTIGRKLSEQLLHGVYGSRDVYRTANTIQRYKQMGYELVSDNYPKNGANYSQDKLVRVYEIHLKHKIVKQPEKSTVKEVIHYLYDNGQPAGPIYENELDFKRIIEFDQVTKQKRYGNWQAIDGTYFKKVDSPKIIGYTPTLEAIETINNIDGSHKDIEETVVYKINDEKAQVTYYDDTTRKKLSEKGLNGAYRTRDSYRTVDAINQYKWAGYELVSDDYPQNGVFYDQDKLIKMYEVHLKHGEKMDFEQRAVKEVIYYQYDDGQLAEPTYKNKLSFRRIVKIDQVTGQKYYGVWQAVDGTNFRSVVSPIIEGYTPIPEIVRAINNINSYHQDVEKTVVYQANKQNEVVGGNSPKKFKQIKIILVRVIHPNREVRINTEKSHTKK | failed
MFKKTFSMICCVIFLQGCSQEQEVKKEMTNMETALLAATEKNETNTVISLLKQGANINATDNQGRTPLMIATYKNDVKTAKALIKAGADVNIQDDMKNNPFLYAGAEGYLDILKLTINAGADPTITNRYGGTALIPASEHGYIDVIKELLTRTNIDVNHVNNLGWTALMETIVLSNGNETQQQVIRLLIEHGADVNIPDNDGVTPLEHARAHNFAEIEKILLEGNK | failed
MLMRTTRKISITDYGVYYYKTCRSIFDLLHESAEVASNVIHNPEGVLNISMPRSFGIFGFLPTLEKFYRIHPKIRVDVSISDSLVDFSENRFDAAVRLGVLSDSSLVARPLRPYKLVLCASPAYLARKGRPATPKDLIVHDCIATYFDEYRTAWNTLQNTWEFLCADGEFIKVSVPARMQVNDAQGVCIMVLSGQGIALLPEIIVSAHLTEGRLIELLPDYQIPSRPMSLVYRKNSLMPFKLKAFIGFLMDEFS | failed
MSENEPAQMIEGRYRIVRNIAEGGMATVYEAIDERLGRTVAIKVMHTQLAKGPHREQFVERFRREANSAASIANPHIVQVYDTGEFNGLDFLVMEYVHGVNLRHEMNAQGTFSVRETLRVVAETLDGLASAHRAGVVHRDIKPENILINDRGHVQITDFGLAKAASQATLSSTGMLLGTAAYLAPEMIENNQATAQGDLYSVGIMAWEMLTGKVPFDSDNPVTLVFKHVHEDVPSVATVCQGIDPSVAAFIAHLTARQVDVRPTDGAAAAEELSQLAAKLPLEAWQYRLHAEPIGGDHTDATAAALVGNIAEQAPLTGVPAGAATFEPSVPAFLADDVASNTADTGGAADVNPPAPPVAPTTALDSSTPADASAPHKTQIMAQSGSETQVLPQAGDAFTRAPALSDEPDVASNGTGPKKQRSKNRFIVLVIVLVLAAIGGTAGWWWFAGPGSYWSVPKPDDVTCDANAGTECSLTGADWATYESTLKAFGIPYKTHEEYSDDVAEGKIISSSVNKTKAVVNSHISKRANQELTVVVSKGVRMATIPKDILDANSANGKNPLNALKKAGFDNVKHDESKDEYSMDTPQGVALTISPDPGTTAKHNDEVTITLSKGPMPVTMPDIVGKTQYEMQAALGELKLTANVTEQYDDKVEAGQVISASQEAGAQLKWGDSVDVVISKGPEMATIPSGLVGKQESAVTKTLESLGFKVKADKVLGGLFGTVRTVKSGDTDLSNGGKTRLRDANGNPTVITLTIV | failed
KSIRLAKEKESQADYISTYVEWQYIDKNITQCFDKMTNMKLEVAWKAKKKDTVVQIHNQDFTVDLSTNTATAPQGQTFTVQRLVKA | not failed
MVEAIIFDMDGVLFDTEKYYYDRRASFLGQKGISIDHLPPSFFIGGNTKQVWENILRDEYDKWDVSTLQEEYNTYKQNNPLPYKELIFPDVLKVLNEVKSQGLNIGLASSSVKADIFRALEENRLQAFFDIVLSGEEFKESKPNPEIYLTALKQLNVQASRALIIEDSEKGIAAGVAADVEVWAIRDNLFGMDQSAAKGLLDSLTDVLDLI | not failed
